# From patent publication WO2018019380A1 (dated 2018)
# T1: CEACAM1 (as used for the Kd / Kon / Koff values) (human, UniProt P13688 35-428, limits assumed)
# T1 sequence (looked up): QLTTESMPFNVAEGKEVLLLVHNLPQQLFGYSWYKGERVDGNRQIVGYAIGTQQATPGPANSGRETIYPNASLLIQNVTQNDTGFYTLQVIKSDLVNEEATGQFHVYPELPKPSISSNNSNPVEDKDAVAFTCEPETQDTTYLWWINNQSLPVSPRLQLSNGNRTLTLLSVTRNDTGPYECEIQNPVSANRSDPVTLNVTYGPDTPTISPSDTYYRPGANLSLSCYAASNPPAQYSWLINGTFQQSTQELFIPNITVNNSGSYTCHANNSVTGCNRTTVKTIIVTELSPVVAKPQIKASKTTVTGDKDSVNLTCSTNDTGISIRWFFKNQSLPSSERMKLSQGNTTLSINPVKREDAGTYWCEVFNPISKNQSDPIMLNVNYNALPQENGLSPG
# B1: Anti-human CEACAM1 antibody (Clone 18-20) (antibody, V domains shown)
# VH: KPGETVKISCKASGYTFTVYGMNWVKQAPGKDLKWMGWINTYTGEPTYADDFKGRFAFSLETSASTAYLQINNLKNEDMATYFCARKAFYRYDGGMDYWGQGTSVTVSS
# VL: SSLSASLGGKVTITCKASQDINKFLAWYQHKPGKGPRLLIHYTSTLQPGIPSRFSGSGSGRDYSFSISNLEPEDIATYYCLQYDNLYTFGGGTKLEIK
# notes: Mouse monoclonal antibody from hybridoma 18-20; also called Antikörper 18-20; antibody 18-20
# B2: Anti-human CEACAM1 antibody (Clone 6G5J) (antibody, V domains shown)
# VH: KPGETVKISCKTSGYIFRNYGMKWVKQAPGKGLKWMGWINTYTGEPTYADDFKGRFAFSLETSASTAYLQINNLKNEDMATYFCARRGMITTSNYALDNWGQGTSVTVSS
# VL: SSLSASLGDRVTISCRASQDISNYLNWYQQKPDGTIKLLIYYTSKLHSGVPSRFSGSGSGTDYSLTISNLDQEDIATYFCQQGNTLPWTFGGGTKLEIK
# notes: Mouse monoclonal antibody from hybridoma 6G5J; also called Antikörper 6G5J; antibody 6G5J
# B3: Anti-human CEACAM1 antibody (Clone B3-17) (antibody, V domains shown)
# VH: GPELVKPGTSVKMSCKASGYTFTTYVMHWVQQKPGQGLDWIGFFNPYNDGTKYNEKFKGKATLTSDKSSSTAYMELSSLTSEDSAVYYCARWAYDGSYAYWGQGTTLTVSS
# VL: SYLSVFLGGRVTITCKASDHINNWLAWYQQKPGNAPRLLISGATSLETGVPSRFSGSGSGKDYTLSIISLQTEDVATYYCQQYWRTPFTFGSGTKLEIK
# notes: Mouse monoclonal antibody from hybridoma B3-17; also called Antikörper B3-17; antibody B3-17
# Biological target: T1, CEACAM1 (as used for the Kd / Kon / …)
# Assay: method not stated
row,Binder,Kd [nM]
1,B1,26
2,B2,23
3,B3,10
